Data published in article PMC6321479, “The C Terminus of the Ribosomal-Associated Protein LrtA Is an Intrinsically Disordered Oligomer” (International Journal of Molecular Sciences, 2018).

What was measured:
[1] = molecular target: the molecule itself; assay: SEC; Superose 12 10/300 GL, pH 8.0 (50 mM Tris), 0.250 M NaCl, 0.8 mL/min; C-LrtA loaded at 30 uM (protomer), 100 uL
[2] = molecular target: the molecule itself; assay: native gel or EMSA; blue-native PAGE, linear 4-16% gradient gel, 20 ug C-LrtA with Coomassie Brilliant blue G, 4 °C; increasing amounts of SDS also tested
[3] = molecular target: the molecule itself; assay: SEC; Superose 12 10/300 GL, pH 8.0 (50 mM Tris), 0.250 M NaCl, 0.8 mL/min; C-LrtA loaded at 500 uM (protomer), 100 uL
[4] = molecular target: the molecule itself; assay: cross-linking; glutaraldehyde, pH 7.2 (50 mM Tris), 120 uM C-LrtA (protomer), 200 uL, several reaction times, SDS-PAGE

B1: C-terminal region of LrtA (C-LrtA, residues 102-191) with N-terminal His-tag (domain or fragment, Synechocystis sp. PCC 6803)
chain: QHGNVKTSEIVEDKPVEENLIGDRAPELPSEVLRMKYFAMPPMAIEDALEQLQLVDHDFYMFRNKDTDEINVIYIRNHGGYGVIQPHQAS
notes: LrtA of Synechocystis sp; PCC 6803 (191 residues), residues 102-191; whole construct 109 residues with the His-tag, 12,449.89 Da; Cloned in pHTP1 by NZytech; also called isolated C-LrtA; C-terminal half of LrtA protein; source: E. coli BL21 (DE3), purified (Ni-resin IMAC, Hi-Trap Mono Q)
How did the “stoichiometry N” value [1] turn out when B1 was run?
Its value is about 2.

And the “stoichiometry N” value [2]?
The value was 5.

What about the “stoichiometry N” value [3] of the same protein?
The value was about 8.

And the “stoichiometry N” value [4]?
Its value is 2.
